# Experimental data from patent US7943569B2, “Composition and method for providing localized delivery of a therapeutic agent” (The Board of Trustees of the University of Illinois, priority 2005, dated 2011).
# Like-named read-outs stand apart in the source and are kept apart here. Primed or numbered codes have the meaning given here. Ends that are not written are not given here. * marks the point of attachment. fluorescein = Lys* = fluorescein containing lysine; fluorescein″ = fluorescein-labelled lysine (Lys*)
# How the values were obtained:
# MMP-2 [1] = biological target: T1, MMP-2 (Homo sapiens, UniProt P08253); settings: MMP-2, Turk et al. (2001); cited from earlier work
# T1 construct: purchased CALBIOCHEM (San Diego, Calif.)
# T1 sequence (P08253 110-660): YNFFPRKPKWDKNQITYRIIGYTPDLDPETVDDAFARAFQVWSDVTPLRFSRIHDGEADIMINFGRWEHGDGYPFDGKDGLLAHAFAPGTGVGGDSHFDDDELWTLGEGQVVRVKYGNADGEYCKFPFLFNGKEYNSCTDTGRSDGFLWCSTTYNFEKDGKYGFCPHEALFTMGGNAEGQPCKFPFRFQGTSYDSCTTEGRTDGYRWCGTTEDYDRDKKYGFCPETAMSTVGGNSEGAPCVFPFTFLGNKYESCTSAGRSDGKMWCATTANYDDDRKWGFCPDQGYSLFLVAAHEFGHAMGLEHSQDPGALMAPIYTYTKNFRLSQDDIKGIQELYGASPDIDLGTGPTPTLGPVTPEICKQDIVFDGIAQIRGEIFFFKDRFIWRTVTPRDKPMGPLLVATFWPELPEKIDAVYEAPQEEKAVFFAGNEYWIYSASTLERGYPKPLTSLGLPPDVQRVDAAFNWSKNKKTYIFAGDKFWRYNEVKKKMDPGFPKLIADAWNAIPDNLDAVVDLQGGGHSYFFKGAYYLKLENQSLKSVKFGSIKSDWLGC
# MMP-2 [2] = biological target: T1, MMP-2; assay: Peptide cleavage by activated MMP-2, HPLC; assay type: biochemical; settings: for Km / Vmax / kcat: MMP-2 10 nM, protease buffer pH 7.4
# Protocol: (§1) Prospective MMP substrate peptides, Lys*-Pro-Ala-Gly-Leu-Leu-Gly-Cys (SEQ ID NO:2), Lys*-Ala-Gly-Leu-Leu-Cys (SEQ ID NO:32), and Lys*-Gly-Leu-Cys (SEQ ID NO:33), were dissolved in a protease buffer containing Tris-HCl (50 mM), NaCl (0.2 M), CaCl2.2H2O (10 mM), BRIJ-35 (0.05%) and ZnSO4.7H2O (50 μM) (pH=7.4). Activated MMP-2 or MMP-9 was added to the peptide solution at a final concentration of 10 nM. At predetermined time intervals, the reaction was stopped by adding EDTA solution (25 mM). Samples were analyzed using reverse phase high pressure liquid chromatography (HPLC). The HPLC system was composed of a gradient pump connected to a scanning fluorescence detector and a photodiode array detector. Peptides were separated on a ZORBAX Extend-C18 (80 Å, 3.6 μm, 4.6 mm×150 mm) column (Agilent Technologies, Palo Alto, Calif.) using a gradient of 30%-70% of 0.1% trifluoroacetic acid in acetonitrile against 0.1% trifluoroacetic acid in water over a period of 15 minutes at a flow rate of 1 mL/minute. The expected cleaved fragments, Lys*-Pro-Ala-Gly (SEQ ID NO:34), Lys*-Ala-Gly, and Lys*-Gly, were synthesized to confirm HPLC retention times. The HPLC retention time of each fragment was compared to that of the cleaved fragment and the intact peptide using the HPLC conditions described above.
# MMP-9 = biological target: T2, MMP-9 (Homo sapiens, UniProt P14780); assay: Peptide cleavage by activated MMP-9, HPLC; assay type: biochemical; settings: for Km / Vmax / kcat: MMP-9 10 nM, protease buffer pH 7.4
# T2 construct: purchased CALBIOCHEM (San Diego, Calif.)
# T2 sequence (P14780 107-707 limits assumed): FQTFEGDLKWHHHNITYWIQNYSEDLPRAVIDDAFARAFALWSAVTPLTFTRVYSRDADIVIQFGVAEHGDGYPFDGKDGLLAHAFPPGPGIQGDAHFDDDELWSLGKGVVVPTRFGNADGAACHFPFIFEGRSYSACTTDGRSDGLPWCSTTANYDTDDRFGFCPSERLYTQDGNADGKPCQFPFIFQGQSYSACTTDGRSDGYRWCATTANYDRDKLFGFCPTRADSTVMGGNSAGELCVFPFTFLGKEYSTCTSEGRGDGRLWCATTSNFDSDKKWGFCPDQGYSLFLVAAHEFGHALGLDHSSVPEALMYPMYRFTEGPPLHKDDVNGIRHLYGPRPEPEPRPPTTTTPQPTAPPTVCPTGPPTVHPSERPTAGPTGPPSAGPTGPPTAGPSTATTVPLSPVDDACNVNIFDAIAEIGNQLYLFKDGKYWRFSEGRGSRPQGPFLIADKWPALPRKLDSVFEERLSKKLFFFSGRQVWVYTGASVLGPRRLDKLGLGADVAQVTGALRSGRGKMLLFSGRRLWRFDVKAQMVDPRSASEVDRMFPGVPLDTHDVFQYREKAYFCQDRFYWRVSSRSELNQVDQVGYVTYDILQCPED
# Protocol: as §1
# [3] = tested on: malignant glioma cell line (U-87MG); assay: Cell viability of U-87MG glioma cells, modified MTT assay, 24 hours; assay type: cell-based; settings: U-87MG cell viability (FIG. 1)
# Protocol: As a model for cancer, the malignant glioma cell line (U-87MG, ATCC #HTB-14) was grown and maintained in Eagles Minimum Essential Media with 10% fetal bovine serum, 1% penicillin/streptomycin, sodium pyruvate (110 mg/L), L-Glutamine (292 mg/L), and nonessential amino acids at 37° C. in 5% CO2. One day prior to the test, cells were plated at 50,000 cells/mL in supplemented media on 96-well plates. Peptides at different concentrations were incubated with cells for 24 hours. Cell viability, with respect to the untreated control, was determined using a modified MTT assay (CELL TITER […] 96® Aqueous One Solution Cell Proliferation Assay; PROMEGA, Madison, Wis.) (Barltrop, et al. (1991) Bioorg. Med. Chem. Lett. 1:661).
# To synthesize Pt-complexes, peptides were dissolved in water and equimolar amounts of potassium tetrachloroplatinate (K2PtCl4) (Acros Organics, Morris Plains, N.J.) were added to each peptide solution. The solutions were stirred for 20 hours and lyophilized.
Molecule,cleavage site (MMP-2 [1]),Km (MMP-2 [2]) [mM],Vmax (MMP-2 [2]),kcat (MMP-2 [2]) [s⁻¹],Km (MMP-9) [µM],Vmax (MMP-9),kcat (MMP-9) [s⁻¹],IC50 [3] [µM],"cleavage site (MMP-2 [2]; cleaved by MMP-2, HPLC comparison with synthesized fragment)","cleavage site (MMP-9; cleaved by MMP-9, HPLC comparison with synthesized fragment)"
GPAGLLG [parent peptide from which the three peptides were designed],cleaved between glycine and leucine,–,–,–,–,–,–,–,–,–
Lys*-Ala-Gly-Leu-Leu-Cys (K(fluorescein)AGLLC) [prospective MMP substrate peptide with fluorescein containing lysine (Lys*)],–,1.4 ± 0.4,6.02 ± 2.1 (M/s) × 10^−9,0.24 ± 0.08,160 ± 100,0.99 ± 0.2 (M/s) × 10^−9,0.04 ± 0.01,–,–,–
"[Cl][Pt-2]([Cl])([Cl])[Cl].[K+].[K+] [K2PtCl4, potassium tetrachloroplatinate]",–,–,–,–,–,–,–,70.7 ± 15,–,–
N.N.[Cl][Pt][Cl] [cisplatin],–,–,–,–,–,–,–,46.9 ± 15,–,–
Lys*-Pro-Ala-Gly-Leu-Leu-Gly-Cys (K(fluorescein)PAGLLGC) [prospective MMP substrate peptide with fluorescein containing lysine (Lys*)],–,1 ± 0.5,270 ± 120 (M/s) × 10^−9,10.7 ± 4.8,400 ± 100,240 ± 50 (M/s) × 10^−9,9.6 ± 2.1,–,cleaved between glycine and leucine,cleaved between glycine and leucine
Lys*-Gly-Leu-Cys (K(fluorescein″)GLC) [prospective MMP substrate peptide with fluorescein containing lysine (Lys*)],–,0.081 ± 0.02,0.88 ± 0.1 (M/s) × 10^−9,0.035 ± 0.006,600 ± 100,5.3 ± 1 (M/s) × 10^−9,0.21 ± 0.04,–,–,–
